Data from patent US20230181672.

Legend:
[1] = biological target: methylmalonylated BSA, P02769
[2] = biological target: propionylated BSA, P02769
Cps1 (Mmut-/-;TgMCKMmut) = biological target: T1, Cps1 (Mmut-/-;TgMCKMmut)
T1 sequence (Q8C196 39-1500, looked up): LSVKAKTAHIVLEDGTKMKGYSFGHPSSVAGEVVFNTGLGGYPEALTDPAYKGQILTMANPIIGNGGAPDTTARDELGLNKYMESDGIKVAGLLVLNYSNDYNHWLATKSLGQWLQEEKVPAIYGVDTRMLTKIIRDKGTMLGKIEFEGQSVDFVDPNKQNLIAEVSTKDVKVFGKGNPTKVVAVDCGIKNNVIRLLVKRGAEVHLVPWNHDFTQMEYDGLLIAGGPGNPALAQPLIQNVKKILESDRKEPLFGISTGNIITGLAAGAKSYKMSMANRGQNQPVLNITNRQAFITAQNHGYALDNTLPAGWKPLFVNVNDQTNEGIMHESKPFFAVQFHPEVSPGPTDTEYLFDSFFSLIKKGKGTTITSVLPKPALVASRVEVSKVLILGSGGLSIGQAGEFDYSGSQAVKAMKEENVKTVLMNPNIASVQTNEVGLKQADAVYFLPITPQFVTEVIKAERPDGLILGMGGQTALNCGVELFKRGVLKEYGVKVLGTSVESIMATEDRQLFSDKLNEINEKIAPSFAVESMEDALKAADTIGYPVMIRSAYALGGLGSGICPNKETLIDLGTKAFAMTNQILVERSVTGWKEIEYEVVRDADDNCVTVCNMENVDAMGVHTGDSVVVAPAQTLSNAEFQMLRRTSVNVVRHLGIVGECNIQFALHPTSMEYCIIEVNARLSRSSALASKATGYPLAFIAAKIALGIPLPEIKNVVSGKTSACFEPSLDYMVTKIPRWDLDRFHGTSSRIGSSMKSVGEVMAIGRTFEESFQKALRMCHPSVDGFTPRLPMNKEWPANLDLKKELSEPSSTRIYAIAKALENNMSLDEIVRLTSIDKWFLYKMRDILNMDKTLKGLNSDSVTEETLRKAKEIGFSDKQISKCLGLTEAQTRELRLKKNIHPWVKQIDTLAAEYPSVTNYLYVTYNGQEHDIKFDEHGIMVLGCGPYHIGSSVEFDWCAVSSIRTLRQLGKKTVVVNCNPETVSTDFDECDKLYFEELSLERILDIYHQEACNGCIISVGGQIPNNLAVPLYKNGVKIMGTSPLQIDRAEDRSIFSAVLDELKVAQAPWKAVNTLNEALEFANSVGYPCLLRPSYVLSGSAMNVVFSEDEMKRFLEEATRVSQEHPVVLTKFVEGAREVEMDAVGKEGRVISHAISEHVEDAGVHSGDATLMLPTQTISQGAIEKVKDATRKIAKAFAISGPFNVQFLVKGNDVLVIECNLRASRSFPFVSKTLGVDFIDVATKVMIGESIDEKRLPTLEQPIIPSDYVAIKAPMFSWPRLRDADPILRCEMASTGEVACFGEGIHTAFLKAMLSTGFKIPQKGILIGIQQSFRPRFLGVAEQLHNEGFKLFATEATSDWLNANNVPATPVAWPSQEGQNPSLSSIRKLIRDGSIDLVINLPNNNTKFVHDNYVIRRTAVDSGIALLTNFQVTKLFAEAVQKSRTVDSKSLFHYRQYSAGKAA

Sequence of methylmalonylated BSA, P02769 (P02769 25-607): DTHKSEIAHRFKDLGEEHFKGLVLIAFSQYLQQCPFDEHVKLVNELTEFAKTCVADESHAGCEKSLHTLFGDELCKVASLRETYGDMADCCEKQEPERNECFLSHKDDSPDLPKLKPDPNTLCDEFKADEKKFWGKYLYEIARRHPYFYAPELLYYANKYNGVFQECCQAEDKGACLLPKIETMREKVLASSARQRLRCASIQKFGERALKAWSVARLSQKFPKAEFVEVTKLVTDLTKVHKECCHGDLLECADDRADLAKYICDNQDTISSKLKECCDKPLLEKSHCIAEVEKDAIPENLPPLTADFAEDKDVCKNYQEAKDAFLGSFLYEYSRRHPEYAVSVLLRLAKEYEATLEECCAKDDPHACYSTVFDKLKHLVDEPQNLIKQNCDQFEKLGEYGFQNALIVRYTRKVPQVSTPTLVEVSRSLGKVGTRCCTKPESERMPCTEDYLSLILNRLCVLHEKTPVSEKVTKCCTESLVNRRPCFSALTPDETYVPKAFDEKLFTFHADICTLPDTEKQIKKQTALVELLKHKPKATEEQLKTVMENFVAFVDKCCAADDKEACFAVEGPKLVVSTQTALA
Sequence of propionylated BSA, P02769 (P02769 25-607): as above

| Protein | removal of methylmalonylation from methylmalonylated BSA (in vitro deacylation assay, Western blot) [1] | depropionylation of propionylated BSA (in vitro deacylation assay, Western blot) [2] | stated: methylmalonylation of immunoprecipitated Cps1 reduced (AP42053 immunoblot) (Cps1 (Mmut-/-;TgMCKMmut)) |
| --- | --- | --- | --- |
| FLAG-SIRT1 (Addgene, 1791) (protein) MADEAALALQPGGSPSAAGADREAASSPAGEPLRKRPRRDGPGLERSPGEPGGAAPEREVPAAARGCPGAAAAALWREAEAEAAAAGGEQEAQATAAAGEGDNGPGLQGPSREPPLADNLYDEDDDDEGEEEEEAAAAAIGYRDNLLFGDEIITNGFHSCESDEEDRASHASSSDWTPRPRIGPYTFVQQHLMIGTDPRTILKDLLPETIPPPELDDMTLWQIVINILSEPPKRKKRKDINTIEDAVKLLQECKKIIVLTGAGVSVSCGIPDFRSRDGIYARLAVDFPDLPDPQAMFDIEYFRKDPRPFFKFAKEIYPGQFQPSLCHKFIALSDKEGKLLRNYTQNIDTLEQVAGIQRIIQCHGSFATASCLICKYKVDCEAVRGDIFNQVVPRCPRCPADEPLAIMKPEIVFFGENLPEQFHRAMKYDKDEVDLLIVIGSSLKVRPVALIPSSIPHEVPQILINREPLPHLHFDVELLGDCDVIINELCHRLGGEYAKLCCNPVKLSEITEKPPRTQKELAYLSELPPTPLHVSEDSSSPERTSPPDSSVIVTLLDQAAKSNDDLDVSESKGCMEEKPQEVQTSRNVESIAEQMENPDLKNVGSSTGEKNERTSVAGTVRKCWPNRVAKEQISRRLDGNQYLFLPPNRYIFHGAEVYSDSEDDVLSSSSCGSNSDSGTCQSPSLEEPMEDESEIEEFYNGLEDEPDVPERAGGAGFGTDGDDQEAINEAISVKQEVTDMNYPSNKS | SIRT1 (FIG. 13A) and SIRT5 (FIG. 13B) were the most effective at removing methylmalonylation from the methylmalonylated BSA substrates | – | – |
| methylmalonylated K4R mutated SIRT5-FLAG (protein) SSSMADFRKFFAKAKHIVIISGAGVSAESGVPTFRGAGGYWRRWQAQDLATPLAFAHNPSRVWEFYHYRREVMGSREPNAGHRAIAECETRLGKQGRRVVVITQNIDELHRRAGTRNLLEIHGSLFKTRCTSCGVVAENYKSPICPALSGKGAPEPGTQDASIPVEKLPRCEEAGCGGLLRPHVVWFGENLDPAILEEVDRELAHCDLCLVVGTSSVVYPAAMFAPQVAARGVPVAEFNTETTPATNRFRFHFQGPCGTTLPEALACHENETVSEFGGDYKDDDDK | SIRT5 K4R did not exhibit enzymatic inhibition after hyper-methylmalonylation/acylation modifications | – | – |
| propionylated SIRT5-FLAG (protein) SSSMADFRKFFAKAKHIVIISGAGVSAESGVPTFRGAGGYWRKWQAQDLATPLAFAHNPSRVWEFYHYRREVMGSKEPNAGHRAIAECETRLGKQGRRVVVITQNIDELHRKAGTKNLLEIHGSLFKTRCTSCGVVAENYKSPICPALSGKGAPEPGTQDASIPVEKLPRCEEAGCGGLLRPHVVWFGENLDPAILEEVDRELAHCDLCLVVGTSSVVYPAAMFAPQVAARGVPVAEFNTETTPATNRFRFHFQGPCGTTLPEALACHENETVSEFGGDYKDDDDK | – | this activity is impaired when SIRT5 is propionylated | – |
| SIRT5-FLAG (Addgene, 13816) (protein) SSSMADFRKFFAKAKHIVIISGAGVSAESGVPTFRGAGGYWRKWQAQDLATPLAFAHNPSRVWEFYHYRREVMGSKEPNAGHRAIAECETRLGKQGRRVVVITQNIDELHRKAGTKNLLEIHGSLFKTRCTSCGVVAENYKSPICPALSGKGAPEPGTQDASIPVEKLPRCEEAGCGGLLRPHVVWFGENLDPAILEEVDRELAHCDLCLVVGTSSVVYPAAMFAPQVAARGVPVAEFNTETTPATNRFRFHFQGPCGTTLPEALACHENETVSEFGGDYKDDDDK | – | SIRT5 mediates the depropionylation of BSA substrate | – |
| K4R mutated SIRT5-FLAG (protein) SSSMADFRKFFAKAKHIVIISGAGVSAESGVPTFRGAGGYWRRWQAQDLATPLAFAHNPSRVWEFYHYRREVMGSREPNAGHRAIAECETRLGKQGRRVVVITQNIDELHRRAGTRNLLEIHGSLFKTRCTSCGVVAENYKSPICPALSGKGAPEPGTQDASIPVEKLPRCEEAGCGGLLRPHVVWFGENLDPAILEEVDRELAHCDLCLVVGTSSVVYPAAMFAPQVAARGVPVAEFNTETTPATNRFRFHFQGPCGTTLPEALACHENETVSEFGGDYKDDDDK | mutant SIRT5 K4R had the ability to remove methylmalonylation from BSA regardless of whether SIRT5 K4R was acylated or not | – | AP42053 bands at about 150 kDa are faint in the 2 SuperSIRT5-AAV Mmut-/- lanes and clear in the 2 GFP-AAV Mmut-/- lanes, with like Cps1 bands; the FLAG blot of the extracts shows SuperSIRT5-FLAG below 37 kDa only in the SuperSIRT5-AAV lanes |
